Source: patent US20230151434A1, “REAWAKENING OF DORMANT TUMOR CELLS BY MODIFIED LIPIDS DERIVED FROM STRESS ACTIVATED NEUTROPHILS” (The Wistar Institute of Anatomy and Biology, priority 2020, published 2023)

B1: S100A8/A9: recombinant S100A8/A9, heterocomplex of two S100 calcium binding proteins (calprotectin) (protein, UniProt P27005 2-89; P31725 2-113, looked up)
Protein S100-A8: PSELEKALSNLIDVYHNYSNIQGNHHALYKNDFKKMVTTECPQFVQNINIENLFRELDINSDNAINFEEFLAMVIKVGVASHKDSHKE
Protein S100-A9: ANKAPSQMERSITTIIDTFHQYSRKEGHPDTLSKKEFRQMVEAQLATFMKKEKRNEALINDIMEDLDTNQDNQLSFEECMMLMAKLIFACHEKLHENNPRGHGHSHGKGCGK

What was measured:
[1] = system: A549^cisA and OVCAR3^cisA cells; experiment: In vitro co-culture of chemotherapy-arrested human tumor cells with human PMN; assay type: cell-based; conditions: PMN and NE plus ICI-118,551
Experimental: The KPr cell line (16) was maintained in RPMI 1640 medium (Corning) and 10% FBS (Gibco). Treatment of KPr cells with 250 nM 4-hydroxytamoxifen (4-OHT, Sigma-Aldrich) induced p53 expression. p53-induced cells (KPr^p53) were stained with CellTrace dye for 20 min at 37° C. according to the manufacturer's instructions (Life Technologies) and seeded at 8500 cells/cm^2 in culture in a T175 tissue culture-treated flask (Gibco). After 7 days, cells were detached and sorted based on the CellTrace dye intensity as proliferating (KPr^p53P, with lower CellTrace) and arrested cells (KPr^p53A, with higher-intensity CellTrace; see FIG. 1A for representative image). LL2 cells were seeded at 1000 cells/cm2 and treated for 3 days with 2.5 μM cisplatin (Selleckchem). After that, cells were stained with CellTrace and sorted as described above. OVCAR3 cell senescence was induced by treating 5×10^4 cells/cm2 with 0.5 μM cisplatin for 72 hours. After that time, cells were stained with CellTrace and sorted. A549 senescence was induced by 72-hour treatment with 4 μM cisplatin and cells were sorted after staining with CellTrace. Time points for sorting were chosen as the best to observe separation between arrested and proliferating cells. Cells were sorted on Astrios (Beckman Coulter) or Melody (Becton Dickinson) fluorescence-activated cell sorters.
Arrested tumor cells were plated at 100 cells/cm^2 in a 48-well tissue culture-treated plate (Costar) for coculture experiments. After 24 hours, PMN-MDSC or PMN were added at indicated ratios. Cocultures were maintained for 48 hours in RPMI 1640+10% FBS in the presence of mouse recombinant GM-CSF (10 ng/ml; Rocky Hill) to ensure neutrophil viability. All control conditions were in the presence of media with GM-CSF. All indicated supplements (NE, S100A8/A9, BGJ398, ICI 118-551, IL-2, MPO inhibitor, LPS, lipids, PMA, and thapsigargin 1 μM) were added to culture at the same time as PMN and maintained for 48 hours. After that, media were removed and replaced by fresh media without GM-CSF. After 1 week, GFP^+ cells in wells were counted via an inverted microscope. When lipid extracts were used, lipids were added to dormant cells in culture at 1 to 0.05 or 0.01 nmol as indicated in each experiment.

[2] = system: PMN; experiment: LC-ESI-MS analysis of lipids in PMN; assay type: cell-based, mouse
Experimental: Lipids were extracted by the Folch procedure with slight modifications, under nitrogen atmosphere, at all steps. Briefly, methanol (1 ml) was added to the cell suspension and mixed. After that, chloroform (2 ml) was added, and the mixture was vortexed every 15 min for 1 hour at 0° C. Next, 0.1 M NaCl (0.5 ml) was added to the samples and vortexed, and the chloroform layer was separated by centrifugation (1500 g, 5 min). The lower (organic) layer was collected. The aqueous layer was re-extracted with 1 ml of chloroform/methanol (2:1, v/v). The chloroform (lower) layers were combined, evaporated under a stream of nitrogen, and used for lipidomics analysis. MS analysis of phospholipids was performed on a Fusion Lumos trihybrid-quadrupoleorbitrap-ion trap mass spectrometer (Thermo Fisher Scientific). Phospholipids were separated on a normal phase column [Luna 3 μm Silica (2) 100 A, 150×1.0 mm (Phenomenex)] at a flow rate of 0.065 ml/min on a Thermo Ultimate 3000 HPLC system. The column was maintained at 35° C. The analysis was performed using gradient solvents (A and B) containing 10 mM ammonium formate. Solvent A contained propanol/hexane/water (285:215:5, v/v/v) and solvent B contained propanol/hexane/water (285:215:40, v/v/v). All solvents were LC/MS grade. The column was eluted for 0 to 3 min with a linear gradient from 10 to 37% B and then held for 3 to 15 min at 37% B. The column was eluted for 15 to 23 min with a linear gradient of 37 to 100% B, and then held for 23 to 75 min at 100% B. The column was eluted again for 75 to 76 min with a linear gradient from 100 to 10% B followed by equilibration from 76 to 90 min at 10% B. Analysis was performed in negative ion mode at a resolution of 120,000 for the full MS scan in a data-dependent mode. The scan range for MS analysis was 400 to 1800 m/z (mass/charge ratio) with a maximum injection time of 100 ms using 1 microscan. An isolation window of 1.2 Da was set for the MS and MS2 scans. Capillary spray voltage was set at 3.5 kV, and capillary temperature was 320° C.

[3] = system: PMN and PMN-MDSC; experiment: NET detection; assay type: cell-based, mouse
Experimental: PMN were cultured for 8 hours in 24-well flat-bottom plates in RPMI 1640+10% FBS. PMN were then fixed with 4% paraformaldehyde (Electron Microscopy Sciences) followed by staining with SYTOX Green Nucleic Acid Stain (SYTOX) at a final concentration of 250 nM. A Nikon TE300 inverted microscope equipped with a motorized XY stage was used to image NETs by acquiring 25 random locations per well. The z-stacks per location were then combined into an extended depth focused image. The total NET area was calculated by segmenting each image using a defined threshold pixel intensity setting. The spot detection tool in NIS-Elements Advanced Research (Nikon) was used to count the number of cells per field. The sum of the total NET area in the 25 random fields of view was divided by the total number of cells in the 25 fields of view to obtain NET area (in […]) per cell.

Molecule	NE- and PMN-induced reactivation of dormant human tumor cells, effect of β-blocker [1]	content of oxidatively truncated PC species in PMN ([2]; PMN incubation)	accumulation of oxidized, oxidatively truncated, and lyso-PE in PMN ([2]; overnight treatment)	content of LPE containing saturated and monoenic acyl chains in PMN ([2]; overnight treatment)	NET formation by PMN and PMN-MDSC [3]
Cc1ccc(OCC(O)C(C)NC(C)C)c2c1CCC2 (centres unmarked) [ICI-118,551]	this effect was abrogated	–	–	–	–
B1	–	No significant changes in the content of oxidatively truncated PC species	caused marked accumulation of oxidized, oxidatively truncated, and lyso-PE in PMN	did not change the content of LPE containing saturated and monoenic acyl chains in PMN	did not cause substantial up-regulation of NETs
